Legend:
[1] = molecular target: ctPrp43 (DEAH-box RNA helicase Prp43 from Chaetomium thermophilum), wild type (C. thermophilum) (UniProt G0RY84)
[2] = molecular target: ctPrp43 (DEAH-box RNA helicase Prp43 from Chaetomium thermophilum), wild type (C. thermophilum) (UniProt G0RY84); remark: listed apart in the source
[3] = molecular target: ctPrp43(Y348G, T350G) (C. thermophilum)
[4] = molecular target: ctPrp43(F181C, N623C) (C. thermophilum)
[5] = molecular target: ctPrp43(R180G, F181G, Y348G, T350G) (C. thermophilum)
[6] = molecular target: ctPrp43(R180G, F181G) (C. thermophilum)

| ATPase activity kcat with five-fold excess of G-patch, no RNA (ctPrp43 alone 1.81 min^-1) [1] [s⁻¹] | helicase activity (maximal unwinding velocity of a dsRNA with 3' overhang; 250 nM ctPrp43, 1.25 uM G-patch; ctPrp43 alone 0.54 nM/min) [2] [nM/min] | ATPase activity kcat with five-fold excess of G-patch, no RNA (ctPrp43-HL alone 6.19 min^-1) [3] [s⁻¹] | ATPase activity kcat with five-fold excess of G-patch, no RNA (ctPrp43-IDSB alone 5.04 min^-1) [4] [s⁻¹] | ATPase activity kcat with five-fold excess of G-patch, no RNA (ctPrp43-HT&HL alone 7.61 min^-1) [5] [s⁻¹] | ATPase activity kcat with five-fold excess of G-patch, no RNA (ctPrp43-HT alone 13.21 min^-1) [6] [s⁻¹] | Substance |
| --- | --- | --- | --- | --- | --- | --- |
| 0.0693 | 1.98 |  |  |  |  | ctNtr1(242-305), truncated G-patch construct of the C. thermophilum Ntr1 homolog (domain or fragment) |
| 0.605 | 60 | 1.44 | 3.32 | 1.89 | 1.02 | ctPfa1(662-742), truncated G-patch construct of the C. thermophilum Pfa1 homolog (domain or fragment) |

Source: PMC5262380, “Structural insights into the mechanism of the DEAH-box RNA helicase Prp43” (eLife, 2017)
